Results: patent US9994628B2, “Peptides and combination of peptides for use in immunotherapy against various tumors” (IMMATICS BIOTECHNOLOGIES GMBH, priority 2015, dated 2018)

Biological target: HLA-A*02:01 (Homo sapiens, UniProt P04439, D140Y/D185E/D98H/E176V/E277Q/G131W/G231S/I119V/I121R/I166T/I218V/L300P/L318F/N151K/N90K/P208A/P217A/Q86G/Q94H/R138H/R169H/T345S)
Experiment: MHC binding assay: UV-ligand exchange and β2m ELISA (peptide exchange yield, Table 7)
Conditions: binding of HLA-class I restricted peptides to HLA-A*02:01, UV-ligand exchange
Source text: Candidate peptides for T cell based therapies according to the present invention were further tested for their MHC binding capacity (affinity). The individual peptide-MHC complexes were produced by UV-ligand exchange, where a UV-sensitive peptide is cleaved upon UV-irradiation, and exchanged with the peptide of interest as analyzed. Only peptide candidates that can effectively bind and stabilize the peptide-receptive MHC molecules prevent dissociation of the MHC complexes. To determine the yield of the exchange reaction, an ELISA was performed based on the detection of the light chain (β2 m) of stabilized MHC complexes. The assay was performed as generally described in Rodenko et al. (Rodenko et al., 2006).
96 well MAXISorp plates (NUNC) were coated over night with 2 ug/ml streptavidin in PBS at room temperature, washed 4× and blocked for 1 h at 37° C. in 2% BSA containing blocking buffer. Refolded HLA-A*02:01/MLA-001 monomers served as standards, covering the range of 15-500 ng/ml. Peptide-MHC monomers of the UV-exchange reaction were diluted 100 fold in blocking buffer. Samples were incubated for 1 h at 37° C., washed four times, incubated with 2 ug/ml HRP conjugated anti-β2 m for 1 h at 37° C., washed again and detected with TMB solution that is stopped with […]. Absorption was measured at 450 nm. Candidate peptides that show a high exchange yield (preferably higher than 50%, most preferred higher than 75%) are generally preferred for a generation and production of antibodies or fragments thereof, and/or T cell receptors or fragments thereof, as they show sufficient avidity to the MHC molecules and prevent dissociation of the MHC complexes.

Row | Substance | Peptide exchange (MHC class I binding score, peptide exchange yield)
1 | 278 (VLEDKVLSV; listed as Homo sapiens) [compound 278] | +++ (≥50% = +++)
2 | 20 (ALVEKGEFAL; listed as Homo sapiens) [compound 20] | ++ (≥20% = ++)
3 | 226 (SLAGNLQEL; listed as Homo sapiens) [compound 226] | +++ (≥50% = +++)
4 | 173 (RLIDIYKNV; listed as Homo sapiens) [compound 173] | +++ (≥50% = +++)
5 | 266 (FLLDKPQDL; listed as Homo sapiens) [compound 266] | ++ (≥20% = ++)
6 | 258 (QLVQRVASV; listed as Homo sapiens) [compound 258] | ++ (≥20% = ++)
7 | 33 (TLDRNSLYV; listed as Homo sapiens) [compound 33] | ++ (≥20% = ++)
8 | 134 (SLYKSFLQL; listed as Homo sapiens) [compound 134] | ++ (≥20% = ++)
9 | 191 (AAIEIFEKV; listed as Homo sapiens) [compound 191] | +++ (≥50% = +++)
10 | 22 (LMYPYIYHV; listed as Homo sapiens) [compound 22] | +++ (≥50% = +++)
11 | 83 (GLLENSPHL; listed as Homo sapiens) [compound 83] | ++ (≥20% = ++)
12 | 14 (YTFSGDVQL; listed as Homo sapiens) [compound 14] | +++ (≥50% = +++)
13 | 111 (AQLEGKLVSI; listed as Homo sapiens) [compound 111] | +++ (≥50% = +++)
14 | 148 (YLILSSHQL; listed as Homo sapiens) [compound 148] | +++ (≥50% = +++)
15 | 217 (LLWPSSVPA; listed as Homo sapiens) [compound 217] | +++ (≥50% = +++)
16 | 141 (NIDINNNEL; listed as Homo sapiens) [compound 141] | ++ (≥20% = ++)
17 | 241 (KQFEGTVEI; listed as Homo sapiens) [compound 241] | +++ (≥50% = +++)
18 | 277 (KLQEELNKV; listed as Homo sapiens) [compound 277] | +++ (≥50% = +++)
19 | 260 (ALNESLVEC; listed as Homo sapiens) [compound 260] | +++ (≥50% = +++)

Row | Substance | Peptide exchange (MHC class I binding score, peptide exchange yield)
20 | 54 (YLVPGLVAA; listed as Homo sapiens) [compound 54] | +++ (≥50% = +++)
21 | 71 (HMSGKLTNV; listed as Homo sapiens) [compound 71] | ++ (≥20% = ++)
22 | 187 (SILKEDPFL; listed as Homo sapiens) [compound 187] | ++ (≥20% = ++)
23 | 242 (KLQEEIPVL; listed as Homo sapiens) [compound 242] | +++ (≥50% = +++)
24 | 255 (FLMKNSDLYGA; listed as Homo sapiens) [compound 255] | +++ (≥50% = +++)
25 | 274 (TLYNPERTITV; listed as Homo sapiens) [compound 274] | +++ (≥50% = +++)
26 | 53 (AQHLSTLLL; listed as Homo sapiens) [compound 53] | + (≥10% = +)
27 | 88 (LLLPLELSLA; listed as Homo sapiens) [compound 88] | +++ (≥50% = +++)
28 | 80 (VLTGQVHEL; listed as Homo sapiens) [compound 80] | +++ (≥50% = +++)
29 | 204 (SEWGSPHAAVP; listed as Homo sapiens) [compound 204] | +++ (≥50% = +++)
30 | 177 (ALINVLNAL; listed as Homo sapiens) [compound 177] | +++ (≥50% = +++)
31 | 252 (SLMEKNQSL; listed as Homo sapiens) [compound 252] | ++ (≥20% = ++)
32 | 66 (AMFPDTIPRV; listed as Homo sapiens) [compound 66] | ++ (≥20% = ++)
33 | 124 (ALLLRLFTI; listed as Homo sapiens) [compound 124] | ++ (≥20% = ++)
34 | 262 (LLLEAVWHL; listed as Homo sapiens) [compound 262] | +++ (≥50% = +++)
35 | 126 (QLREAFEQL; listed as Homo sapiens) [compound 126] | +++ (≥50% = +++)
36 | 13 (RLHDENILL; listed as Homo sapiens) [compound 13] | +++ (≥50% = +++)
37 | 275 (AVPPPPSSV; listed as Homo sapiens) [compound 275] | ++ (≥20% = ++)
38 | 92 (RLFEEVLGV; listed as Homo sapiens) [compound 92] | ++++ (≥75% = ++++)

Row | Substance | Peptide exchange (MHC class I binding score, peptide exchange yield)
39 | 247 (NLLIDDKGTIKL; listed as Homo sapiens) [compound 247] | ++ (≥20% = ++)
40 | 208 (HLNNDRNPL; listed as Homo sapiens) [compound 208] | ++ (≥20% = ++)
41 | 273 (SLNKQIETV; listed as Homo sapiens) [compound 273] | ++ (≥20% = ++)
42 | 7 (ALLQALMEL; listed as Homo sapiens) [compound 7] | +++ (≥50% = +++)
43 | 99 (TLFGIQLTEA; listed as Homo sapiens) [compound 99] | +++ (≥50% = +++)
44 | 159 (QLGPVPVTI; listed as Homo sapiens) [compound 159] | +++ (≥50% = +++)
45 | 200 (IMPTFDLTKV; listed as Homo sapiens) [compound 200] | +++ (≥50% = +++)
46 | 150 (VLLDMVHSL; listed as Homo sapiens) [compound 150] | +++ (≥50% = +++)
47 | 125 (AALEVLAEV; listed as Homo sapiens) [compound 125] | +++ (≥50% = +++)
48 | 222 (LLTGVFAQL; listed as Homo sapiens) [compound 222] | ++ (≥20% = ++)
49 | 243 (GLAEFQENV; listed as Homo sapiens) [compound 243] | ++ (≥20% = ++)
50 | 97 (KLFEKSTGL; listed as Homo sapiens) [compound 97] | +++ (≥50% = +++)
51 | 4 (VLFGELPAL; listed as Homo sapiens) [compound 4] | +++ (≥50% = +++)
52 | 91 (LLPSIFLMV; listed as Homo sapiens) [compound 91] | ++ (≥20% = ++)
53 | 285 (MLLDTVQKV; listed as Homo sapiens) [compound 285] | +++ (≥50% = +++)
54 | 19 (KVFELDLVTL; listed as Homo sapiens) [compound 19] | ++ (≥20% = ++)
55 | 98 (FVQEKIPEL; listed as Homo sapiens) [compound 98] | +++ (≥50% = +++)
56 | 224 (LLFDWSGTGRADA; listed as Homo sapiens) [compound 224] | +++ (≥50% = +++)
57 | 50 (ILLSVLHQL; listed as Homo sapiens) [compound 50] | +++ (≥50% = +++)
